Biological target: CFP-Cav1 (human caveolin-1 with CFP at its N terminus) (human) (UniProt Q03135)
Test: FRET or BRET

UniProt Q03135, sequence (Q03135 whole entry): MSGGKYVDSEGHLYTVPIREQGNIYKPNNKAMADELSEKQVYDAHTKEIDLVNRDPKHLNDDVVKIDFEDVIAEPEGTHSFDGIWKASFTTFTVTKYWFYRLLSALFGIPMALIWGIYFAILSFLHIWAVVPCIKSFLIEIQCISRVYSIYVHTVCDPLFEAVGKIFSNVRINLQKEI

FRET efficiency: 15%
Substance: YFP-tagged rat Na/K-ATPase α1 pump-null mutant D371N (natural protein)
